{"source": "patent US20100003195A1", "key": {"[1]": {"target": "KDR on KDR-transfected 293H cells (human) (UniProt P35968)", "sequence (P35968 20-1356)": "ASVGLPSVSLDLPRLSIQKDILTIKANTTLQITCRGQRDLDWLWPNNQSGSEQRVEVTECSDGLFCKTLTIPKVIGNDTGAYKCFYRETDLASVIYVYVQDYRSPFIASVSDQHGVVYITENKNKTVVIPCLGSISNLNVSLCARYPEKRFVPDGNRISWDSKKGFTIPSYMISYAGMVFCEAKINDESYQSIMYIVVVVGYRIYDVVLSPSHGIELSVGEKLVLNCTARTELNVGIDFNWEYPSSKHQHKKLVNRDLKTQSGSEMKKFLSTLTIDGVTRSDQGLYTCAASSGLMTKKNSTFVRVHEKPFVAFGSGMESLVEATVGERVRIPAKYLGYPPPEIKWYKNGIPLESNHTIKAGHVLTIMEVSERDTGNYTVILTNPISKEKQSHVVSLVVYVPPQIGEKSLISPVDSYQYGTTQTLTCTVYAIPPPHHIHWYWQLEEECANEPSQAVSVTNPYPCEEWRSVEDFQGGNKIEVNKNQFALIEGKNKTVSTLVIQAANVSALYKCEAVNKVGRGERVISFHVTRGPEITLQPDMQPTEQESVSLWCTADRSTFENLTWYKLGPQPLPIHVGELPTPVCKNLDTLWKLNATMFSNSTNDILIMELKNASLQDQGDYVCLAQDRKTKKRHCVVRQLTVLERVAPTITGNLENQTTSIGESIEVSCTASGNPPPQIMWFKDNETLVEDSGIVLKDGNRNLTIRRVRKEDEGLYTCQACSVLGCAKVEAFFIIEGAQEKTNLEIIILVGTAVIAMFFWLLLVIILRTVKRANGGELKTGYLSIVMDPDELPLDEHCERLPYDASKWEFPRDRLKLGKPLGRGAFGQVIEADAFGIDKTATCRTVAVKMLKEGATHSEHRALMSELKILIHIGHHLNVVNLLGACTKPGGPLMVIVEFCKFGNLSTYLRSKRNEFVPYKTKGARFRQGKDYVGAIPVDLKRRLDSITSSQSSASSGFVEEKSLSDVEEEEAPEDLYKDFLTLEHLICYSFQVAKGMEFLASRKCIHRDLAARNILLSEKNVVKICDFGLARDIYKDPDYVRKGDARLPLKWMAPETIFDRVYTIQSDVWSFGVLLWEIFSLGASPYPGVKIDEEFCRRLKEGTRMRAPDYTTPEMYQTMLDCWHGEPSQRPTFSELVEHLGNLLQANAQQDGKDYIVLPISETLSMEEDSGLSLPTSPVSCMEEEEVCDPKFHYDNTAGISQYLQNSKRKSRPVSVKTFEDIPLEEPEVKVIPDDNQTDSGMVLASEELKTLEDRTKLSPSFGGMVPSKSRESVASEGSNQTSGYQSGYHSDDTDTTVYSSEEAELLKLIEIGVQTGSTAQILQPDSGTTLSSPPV", "assay": "scrambled-peptide microbubbles (Example 35) on KDR-transfected 293H cells, microscopy"}, "[2]": {"target": "KDR on KDR-transfected 293H cells (human) (UniProt P35968)", "assay": "scrambled-peptide microbubbles (Example 36) on KDR-transfected 293H cells, microscopy"}, "[3]": {"target": "KDR on KDR-transfected 293H cells (human) (UniProt P35968)", "assay": "scrambled-peptide microballoons (Example 37) on KDR-transfected 293H cells, microscopy"}}, "data": [{"substance": "microvesicles conjugated to a scrambled control peptide", "values": [{"measurement": "coverage % of the imaged surface", "setting": "[1]", "result": 2.1, "unit": "%"}, {"measurement": "coverage % of the imaged surface", "setting": "[2]", "result": 2.2, "unit": "%"}, {"measurement": "coverage % of the imaged surface", "setting": "[3]", "result": 0.1, "unit": "%"}]}]}
